One assay addresses HLA-A*02:06. The experiment in a line: IEDB peptide-MHC binding, purified MHC/competitive/radioactivity; filed as Kd, often an IC50 or EC50 that approximates it; ≥ and ≤ were set here for values at or beyond the usual limits of such assays.
The next assay concerns the target HLA-A*02:03. Described as above.
The next assay addresses HLA-B*08:01. The description is as above.
A further assay addresses HLA-A*02:02. The assay is described as above.
In a further assay the target is HLA-A*24:02. The description is as above.
The target of a further assay is HLA-A*29:02. Described as above.
In the next assay the target is HLA-A*01:01. The description is as above.
The target of the next assay is HLA-A*23:01. The assay is described as above.
For a further assay, the target named is HLA-A*30:02. The assay is described as above.
The target in the next assay is HLA-A*26:01. The assay is described as above.
The next assay addresses HLA-A*68:02. The description is as above.
A further assay addresses HLA-A*02:01. The experiment in a line: IEDB peptide-MHC binding, purified MHC/competitive/fluorescence; ≥ and ≤ were set here for values at or beyond the usual limits of such assays. As to conditions: source organism: Hepatitis C virus genotype 1.
In the next assay the target is HLA-A*30:01. Briefly: IEDB peptide-MHC binding, purified MHC/competitive/radioactivity; filed as Kd, often an IC50 or EC50 that approximates it; ≥ and ≤ were set here for values at or beyond the usual limits of such assays.
Setting [1] is: source organism: Vaccinia virus WR.
[2] abbreviates: source organism: Mammarenavirus mopeiaense.
[3] abbreviates: source organism: Dengue virus 4 Philippines/H241/1956.
[4] abbreviates: source organism: Hepatitis C virus (isolate 1).
Setting [5] is: source organism: SARS coronavirus Tor2.
[6] abbreviates: source organism: Mammarenavirus caliense.
Setting [7] is: source organism: Dengue virus 3 Martinique/1243/1999.
[8] abbreviates: source organism: Lymphocytic choriomeningitis virus (strain Armstrong).

Experimental findings from the Immune Epitope Database (IEDB) are described below.

As to FMYTKHSML, the Kd with HLA-A*02:06 (setting [1]) is 222 nM; in the assay with HLA-A*02:03 (setting [1]), 0.394 nM; in the assay with HLA-B*08:01 (setting [1]), 0.2 nM; in the assay with HLA-A*02:02 (setting [1]), 2.4 nM.

In the case of PYIASRTSIV, the Kd in the assay with HLA-A*24:02 (setting [2]) was 2500 nM; with HLA-A*29:02 (setting [2]) it was at least 32600 nM; with HLA-A*01:01 (setting [2]) it was at least 44500 nM; with HLA-A*23:01 (setting [2]) it was 1590 nM; with HLA-A*30:02 (setting [2]) it was at least 37300 nM; in the assay with HLA-A*26:01 (setting [2]), at least 69700 nM.

SVYTTMFGGV: the Kd with HLA-A*02:06 (setting [3]) came to 1.96 nM; with HLA-A*68:02 (setting [3]), 9.63 nM; with HLA-A*02:03 (setting [3]) it was 8.23 nM.

With CINGVCWTV, the IC50 with HLA-A*02:01 is at least 50000 nM. Also, the Kd in the assay with HLA-A*02:06 (setting [4]) came out at 4370 nM; in the assay with HLA-A*68:02 (setting [4]) it was 3780 nM; with HLA-A*02:03 (setting [4]), 6440 nM; in the assay with HLA-A*02:02 (setting [4]), 3350 nM.

As to TARGARRMA, the Kd with HLA-A*30:01 (source organism: Dengue virus 1 Brazil/97-11/1997) came out at 6300 nM.

Regarding SRHQRLHDE, in the assay with HLA-B*08:01 (setting [1]), the dissociation constant (Kd) is 453 nM.

Regarding TSSMRGVYY, the Kd was at least 77600 nM with HLA-A*24:02 (setting [5]); 263 nM with HLA-A*29:02 (setting [5]); 69.3 nM in the assay with HLA-A*01:01 (setting [5]); at least 77800 nM in the assay with HLA-A*23:01 (setting [5]); 124 nM with HLA-A*30:02 (setting [5]); 8300 nM in the assay with HLA-A*26:01 (setting [5]).

For YQPDTGNYI, the Kd is 5260 nM with HLA-A*24:02 (setting [6]), at least 78900 nM in the assay with HLA-A*29:02 (setting [6]) and 5790 nM in the assay with HLA-A*23:01 (setting [6]).

As for TYASALWEI, the Kd with HLA-A*24:02 (setting [5]) was at least 21500 nM; with HLA-A*29:02 (setting [5]), 14200 nM; in the assay with HLA-A*01:01 (setting [5]), at least 78100 nM; with HLA-A*23:01 (setting [5]), 8140 nM; with HLA-A*30:02 (setting [5]) it was at least 81100 nM; in the assay with HLA-A*26:01 (setting [5]), at least 77900 nM.

As to LDESFLGRY, the Kd in the assay with HLA-A*24:02 (setting [5]) was at least 77600 nM; with HLA-A*29:02 (setting [5]), 1540 nM; with HLA-A*01:01 (setting [5]), 2610 nM; in the assay with HLA-A*23:01 (setting [5]), at least 77800 nM; with HLA-A*30:02 (setting [5]) it was 163 nM; with HLA-A*26:01 (setting [5]) it was 12700 nM.

With ALEAKIAQL, the Kd with HLA-A*02:06 (source organism: Homo sapiens) amounted to 1100 nM; in the assay with HLA-A*68:02 (source organism: Homo sapiens), 7300 nM; with HLA-A*02:03 (source organism: Homo sapiens), 46.7 nM; in the assay with HLA-A*02:02 (source organism: Homo sapiens) it was 14.8 nM.

For the sequence TATLILAGV, the dissociation constant (Kd) in the assay with HLA-A*68:02 (setting [7]) was 1.07 nM.

Turning to RTAGMIIMLI, in the assay with HLA-A*68:02 (source organism: Dengue virus 2 Peru/IQT2913/1996), the dissociation constant Kd worked out at 61.6 nM.

As to YEDQDALFAY, the Kd was at least 70300 nM with HLA-A*24:02 (setting [5]); 530 nM with HLA-A*29:02 (setting [5]); at least 92600 nM with HLA-A*01:01 (setting [5]); at least 70000 nM with HLA-A*23:01 (setting [5]); 2030 nM in the assay with HLA-A*30:02 (setting [5]); at least 64800 nM with HLA-A*26:01 (setting [5]).

On to NYCEGTTVVI, for which the Kd with HLA-A*24:02 (setting [7]) was determined as 43.4 nM; with HLA-A*23:01 (setting [7]), 101 nM.

For SLIPRLVDF, the Kd with HLA-B*08:01 (setting [1]) worked out at 12.7 nM.

As for MSKSHAAYI, the Kd in the assay with HLA-A*30:01 (setting [1]) worked out at 0.227 nM.

For the sequence ASMAICSAV, in the assay with HLA-A*68:02 (setting [3]), the Kd was found to be 63.7 nM.

For KLKKLEEEQI, the Kd with HLA-A*02:06 (source organism: Homo sapiens) was at least 59100 nM; in the assay with HLA-A*68:02 (source organism: Homo sapiens) it was at least 60000 nM.

Consider VKIPTHRHI, for which the Kd with HLA-A*24:02 (setting [8]) was at least 77500 nM; in the assay with HLA-A*29:02 (setting [8]), 15400 nM; with HLA-A*01:01 (setting [8]), at least 78100 nM; with HLA-A*23:01 (setting [8]), at least 77700 nM; with HLA-A*30:02 (setting [8]), at least 76900 nM; in the assay with HLA-A*26:01 (setting [8]) it was at least 77900 nM.

For VFSAVGNICY, the Kd with HLA-A*24:02 (setting [5]) stood at 7130 nM; with HLA-A*29:02 (setting [5]), 28.3 nM; with HLA-A*01:01 (setting [5]) it was 60.5 nM; with HLA-A*23:01 (setting [5]) it was 15400 nM; with HLA-A*30:02 (setting [5]), 13.8 nM; with HLA-A*26:01 (setting [5]), 1280 nM.

In the case of NVMKRINCF, the Kd with HLA-B*08:01 (setting [1]) turned out to be 19.8 nM.

For DRRSFFKCF, the Kd with HLA-B*08:01 (source organism: Vaccinia virus Copenhagen) is 75.7 nM.

Take ELREIFRRL: the Kd in the assay with HLA-B*08:01 (setting [1]) amounted to 26.5 nM.

YLALYNKYKY: the Kd with HLA-A*24:02 (setting [5]) is 18600 nM; in the assay with HLA-A*29:02 (setting [5]), 43.2 nM; in the assay with HLA-A*01:01 (setting [5]), 244 nM; in the assay with HLA-A*23:01 (setting [5]), 11600 nM; with HLA-A*30:02 (setting [5]), 34.5 nM; with HLA-A*26:01 (setting [5]) it was 19200 nM.

For the sequence LGSLGCKPLT, the Kd in the assay with HLA-A*30:01 (source organism: Dengue virus 1 Singapore/S275/1990) was determined as 1410 nM.

Consider TVFFVLMMLV, for which the Kd in the assay with HLA-A*68:02 (setting [3]) is 38.7 nM.

With SAKRITESI, the Kd with HLA-B*08:01 (setting [1]) was determined as 119 nM.

As usually defined, the Kd is the free concentration of one partner at which half of the binding sites on the other are occupied at equilibrium, for simple one-to-one binding. What is called IC50 is the midpoint of a concentration-inhibition curve. Low values mean inhibition by little substance, high ones a need for much substance.
